# Data: patent US20260125478A1 (VIELA BIO, published 2026)
# T1: human FcγRIIA 131H on blood cells of 131H/H donors (human, UniProt P12318 34-317)
# T1 sequence (looked up): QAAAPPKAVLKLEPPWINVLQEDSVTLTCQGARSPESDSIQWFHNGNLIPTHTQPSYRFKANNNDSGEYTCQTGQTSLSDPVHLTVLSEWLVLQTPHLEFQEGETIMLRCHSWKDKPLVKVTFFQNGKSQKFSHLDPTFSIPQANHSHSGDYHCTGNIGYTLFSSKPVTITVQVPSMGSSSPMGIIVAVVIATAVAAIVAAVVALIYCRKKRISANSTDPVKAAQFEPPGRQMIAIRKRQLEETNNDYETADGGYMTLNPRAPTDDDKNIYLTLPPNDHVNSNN
# T2: human FcγRIIA 131R on blood cells of 131R/R donors (human, UniProt P12318 34-317)
# T2 sequence: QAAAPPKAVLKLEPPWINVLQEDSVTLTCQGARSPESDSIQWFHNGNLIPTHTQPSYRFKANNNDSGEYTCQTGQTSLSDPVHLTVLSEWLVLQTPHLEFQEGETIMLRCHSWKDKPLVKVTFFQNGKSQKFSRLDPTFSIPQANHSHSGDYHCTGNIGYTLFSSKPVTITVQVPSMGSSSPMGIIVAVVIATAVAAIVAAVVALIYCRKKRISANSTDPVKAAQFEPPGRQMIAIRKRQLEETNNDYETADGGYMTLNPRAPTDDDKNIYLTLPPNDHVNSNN
# T3: recombinant FcγRIIA-131H/H allotype (ELISA coat, generated at MedImmune) (human, UniProt P12318 34-217, limits assumed)
# T3 construct: also called human FcγRIIA; CD32A
# T3 sequence (looked up): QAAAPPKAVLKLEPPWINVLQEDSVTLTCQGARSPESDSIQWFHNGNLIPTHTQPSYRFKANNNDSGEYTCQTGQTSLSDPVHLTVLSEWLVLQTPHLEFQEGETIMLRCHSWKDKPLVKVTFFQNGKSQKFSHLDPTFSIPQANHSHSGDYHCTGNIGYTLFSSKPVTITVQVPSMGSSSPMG
# T4: recombinant FcγRIIB (ELISA coat, generated at MedImmune) (UniProt P31994 43-217, limits assumed)
# T4 construct: also called CD32B
# T4 sequence (looked up): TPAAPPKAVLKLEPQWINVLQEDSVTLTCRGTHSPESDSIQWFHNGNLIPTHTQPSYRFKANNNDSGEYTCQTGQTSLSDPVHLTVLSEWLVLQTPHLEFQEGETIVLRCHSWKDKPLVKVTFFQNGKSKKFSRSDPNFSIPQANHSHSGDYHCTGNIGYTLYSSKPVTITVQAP
# T5: Human CD32A 131R extracellular domain, 6xHis_Flag tagged (human, UniProt P12318 34-217)
# T5 construct: also called Hu CD32A_131Arg; human CD32A_131 Arg
# T5 chain: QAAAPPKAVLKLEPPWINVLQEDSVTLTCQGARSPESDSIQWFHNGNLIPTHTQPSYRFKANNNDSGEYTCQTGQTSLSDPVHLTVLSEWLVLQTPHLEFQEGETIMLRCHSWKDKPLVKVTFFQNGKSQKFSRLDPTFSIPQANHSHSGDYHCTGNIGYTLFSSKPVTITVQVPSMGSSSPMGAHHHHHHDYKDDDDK
# Columns and labels:
# [1] = molecular target: T1, human FcγRIIA 131H on blood cells of …; assay: cell-based or functional assay
# [2] = molecular target: T2, human FcγRIIA 131R on blood cells of …; assay: cell-based or functional assay
# [3] = molecular target: cynomolgus monkey FcγRIIA on blood cells (cynomolgus monkey); assay: cell-based or functional assay
# [4] = molecular target: T3, recombinant FcγRIIA-131H/H allotype …; assay: ELISA on plate-coated FcγRIIA-131H/H (2 µg/ml), detection with goat anti-human Fc-HRP
# Protocol: (§1) Plates were washed five times with 200 μl of wash buffer (PBS containing 0.1% Tween 20), blocked with blocking buffer containing 5% milk in PBS for 1 hour at room temperature, and washed five additional times with wash buffer. Three-fold serial dilutions of the test antibody or control antibody (R347-Tm) were added to wells in duplicate. Plates were incubated for 2 hours at room temperature, and washed five times with wash buffer. Binding of the antibodies to the FcγRs was detected by adding 50 μl of goat anti-human Fc-HRP (Jackson ImmunoResearch Laboratories, PA) to the wells and incubating for 1 hour at room temperature, washing 10 times, and adding 50 μl TMB substrate (Pierce Biotechnology, MA). The color reaction was stopped with 50 μl 0.2M […] and the absorbance was measured using a spectrophotometer (Molecular Devices, CA) at […].
# [5] = molecular target: T6, recombinant human FcγRIIIA-158V allotype (ELISA coat, generated at MedImmune) (human, UniProt P08637 17-208, limits assumed); assay: ELISA on plate-coated FcγRIIIA-158V (2 µg/ml), detection with goat anti-human Fc-HRP
# T6 construct: also called FcγRIII-158V allotype; CD16A 158V
# T6 sequence (P08637 17-208 F176V limits assumed): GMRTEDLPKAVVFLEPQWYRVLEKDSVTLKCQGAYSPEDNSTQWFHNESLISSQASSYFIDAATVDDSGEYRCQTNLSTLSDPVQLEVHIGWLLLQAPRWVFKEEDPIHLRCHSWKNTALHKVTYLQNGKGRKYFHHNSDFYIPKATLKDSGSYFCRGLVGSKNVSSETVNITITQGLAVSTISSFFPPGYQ
# Protocol: as §1
# [6] = molecular target: T7, recombinant human FcγRI (ELISA coat, generated at MedImmune) (human, UniProt P12314 16-292, limits assumed); assay: ELISA on plate-coated FcγRI (2 µg/ml), detection with goat anti-human Fc-HRP
# T7 construct: also called CD64
# T7 sequence (P12314 16-292 limits assumed): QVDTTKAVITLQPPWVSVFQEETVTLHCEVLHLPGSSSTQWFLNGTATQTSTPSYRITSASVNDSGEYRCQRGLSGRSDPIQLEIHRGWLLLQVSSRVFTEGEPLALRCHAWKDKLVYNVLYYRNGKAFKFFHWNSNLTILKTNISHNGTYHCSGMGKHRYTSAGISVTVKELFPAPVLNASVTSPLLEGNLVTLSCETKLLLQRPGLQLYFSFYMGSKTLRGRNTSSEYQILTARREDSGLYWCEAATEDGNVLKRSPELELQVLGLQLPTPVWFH
# Protocol: as §1
# [7] = molecular target: T8, recombinant human FcγRIIIA-158F allotype (ELISA coat, generated at MedImmune) (human, UniProt P08637 17-208, limits assumed); assay: ELISA on plate-coated FcγRIIIA-158F (2 µg/ml), detection with goat anti-human Fc-HRP
# T8 construct: also called FcγRIII-158F allotype; CD16A 158F
# T8 sequence (P08637 17-208 limits assumed): as the sequence (P08637 17-208 F176V limits assumed) above, with V160F counted along it
# Protocol: as §1
# [8] = molecular target: T4, recombinant FcγRIIB (ELISA coat, …); assay: ELISA on plate-coated FcγRIIB (2 µg/ml), detection with goat anti-human Fc-HRP
# Protocol: as §1
# [9] = molecular target: T5, Human CD32A 131R extracellular domain, …; assay: HTRF epitope competition: sample IgG titrated against binding of mouse IV.3 IgG to human CD32a 131R
"IC50 of the loss of surface FcγRIIA (M.F.I of IV.3-Alexa 647) on monocytes, whole blood, 2 h at 37 °C [1] [nM]","IC50 of the loss of surface FcγRIIA (M.F.I of IV.3-Alexa 647) on monocytes, whole blood, 2 h at 37 °C [2] [nM]","IC50 of the loss of surface FcγRIIA (M.F.I of IV.3-Alexa 647) on cynomolgus monocytes, whole blood, 2 h at 37 °C [3] [nM]",EC50 (read off the curve) [4] [ng/mL],binding result [5],binding result [6],binding result [7],binding result [8],binding result [9],Binder
0.241,0.307,10.5,,,,,,,"CamIV3 (antibody, V domains shown) VH: QVQLVQSGAEVKKPGASVKVSCKASGYTFTNYGMNWVRQAPGQRLEWMGWLNTYTGESIYPDDFKGRVTITRDTSASTAYMELSSLRSEDTAVYYCARGDYGYDDPLDYWGQGTLVTVSS VL: DIVMTQSPLSLPVTPGEPASISCRSSKSLLHTLGNTYLHWFLQKPGQSPQLLIYRMSVLASGVPDRFSGSGSGTDFTLKISRVEAEDVGVYYCMQHLEYPLTFGQGTKLEIK"
0.0692,0.0537,1.2,~5,no binding (tested: about 15000 ng/ml),no binding (tested: about 15000 ng/ml),no binding (tested: about 15000 ng/ml),no binding (tested: about 15000 ng/ml),binds,"32LO0350 (antibody, human IgG1, V domains shown, also called optimized IV.3 clone 32LO0350) VH: QVQLVQSGAEVKKPGASVKVSCKASGYTFTNYGMNWVRQAPGQRLEWMGWLNTYTGESWYPDDFKGRVTITRDTSASTAYMELSSLRSEDTAVYYCARGDYGYDDPLDYWGQGTLVTVSS VL: DIVMTQSPLSLPVTPGEPASISCRSSKSLLHTNRNTYLHWFLQKPGQSPQLLIYRMSVLASGVPDRFSGSGSGTDFTLKISRVEAEDVGVYYCMQHLEYPLTFGQGTKLEIK"
0.0524,0.0559,16.4,,,,,,,"32LO0351 (antibody, V domains shown) VH: QVQLVQSGAEVKKPGASVKVSCKASGYTFTNYGMNWVRQAPGQRLEWMGWLNTYTGESYYPDDFKGRVTITRDTSASTAYMELSSLRSEDTAVYYCARGDYGYDDPLDYWGQGTLVTVSS VL: DIVMTQSPLSLPVTPGEPASISCRSSKSLLHTYGNTYLHWFLQKPGQSPQLLIYRMSVLASGVPDRFSGSGSGTDFTLKISRVEAEDVGVYYCMQHLEYPLTFGQGTKLEIK"
0.044,0.0431,3.78,,,,,,,"32LO0356 (antibody, V domains shown) VH: QVQLVQSGAEVKKPGASVKVSCKASGYTFTNYGMNWVRQAPGQRLEWMGWLNTYTGESYYPDDFKGRVTITRDTSASTAYMELSSLRSEDTAVYYCARGDYGYDDPLDYWGQGTLVTVSS VL: DIVMTQSPLSLPVTPGEPASISCRSSKSLLHTNFNTYLHWFLQKPGQSPQLLIYRMSVLASGVPDRFSGSGSGTDFTLKISRVEAEDVGVYYCMQHLEYPLTFGQGTKLEIK"
0.0915,0.0644,1.01,~5,no binding (tested: about 15000 ng/ml),no binding (tested: about 15000 ng/ml),no binding (tested: about 15000 ng/ml),no binding (tested: about 15000 ng/ml),binds,"32LO0355 (antibody, human IgG1, V domains shown, also called optimized IV.3 clone 32LO0355) VH: QVQLVQSGAEVKKPGASVKVSCKASGYTFTNYGMNWVRQAPGQRLEWMGWLNTYTGESWYPDDFKGRVTITRDTSASTAYMELSSLRSEDTAVYYCARGDYGYDDPLDYWGQGTLVTVSS VL: DIVMTQSPLSLPVTPGEPASISCRSSKSLLHTNKNTYLHWFLQKPGQSPQLLIYRMSVLASGVPDRFSGSGSGTDFTLKISRVEAEDVGVYYCMQHLEYPLTFGQGTKLEIK"
0.0417,0.039,5.14,~5,no binding (tested: about 15000 ng/ml),no binding (tested: about 15000 ng/ml),no binding (tested: about 15000 ng/ml),no binding (tested: about 15000 ng/ml),binds,"32LO0354 (antibody, human IgG1, V domains shown, also called optimized IV.3 clone 32LO0354) VH: QVQLVQSGAEVKKPGASVKVSCKASGYTFTNYGMNWVRQAPGQRLEWMGWLNTYTGESYYPDDFKGRVTITRDTSASTAYMELSSLRSEDTAVYYCARGDYGYDDPLDYWGQGTLVTVSS VL: DIVMTQSPLSLPVTPGEPASISCRSSKSLLHTNRNTYLHWFLQKPGQSPQLLIYRMSVLASGVPDRFSGSGSGTDFTLKISRVEAEDVGVYYCMQHLEYPLTFGQGTKLEIK"
